Among the data in US11396522B2, “Bis-acetal-based substrates for imaging exo-glycosidase activity” (ALECTOS THERAPEUTICS INC., priority 2017, dated 2022) are kcat/Km values, retold here.

By kcat/Km is commonly meant the turnover number divided by the Michaelis constant.

Type in all cases: biochemical, human
Substrate in series [1]: CN(C)c1ccc(/N=N/c2ccc(C(=O)NCc3cn(CCOCCOC(CC(=O)NCCNc4cccc5c(S(=O)(=O)O)cccc45)O[C@@H]4O[C@H](CO)[C@@H](O)[C@H](O)[C@H]4O)nn3)cc2)cc1
Kind of series: In vitro kinetic assay with GBA1. Conditions: other: 20 nM GBA1, initial rates.

Substrate in series [2]: CC(=O)N[C@H]1[C@H](O[C@@H](OCCOCCn2cc(CNC(=O)c3ccc(/N=N/c4ccc(N(C)C)cc4)cc3)nn2)[C@@](C)(Br)C(=O)NCCNc2cccc3c(S(=O)(=O)O)cccc23)O[C@H](CO)[C@@H](O)[C@@H]1O
Nature of the series: In vitro kinetic assay with hOGA. Conditions: other: PBS, 37° C., recombinant hOGA. On the procedure: (§1) For some experiments, fluorescence kinetic assays were performed using a Varian Cary Eclipse Spectrophotometer set for 335/493 nm excitation/emission wavelengths. Slits were set at 10 nm and the detector was set on Medium voltage. Enzymatic reactions with human OGA were carried out in PBS at 37° C. and were started by addition of hOGA (WT, Full-length, expressed in E. coli. as previously described) in a total volume of 160 μL (Starna sub-micro Fluorometer cuvette). For measurements of rates using different concentrations of substrates, a hOGA concentration of 100 nM was used. For hOGA titration, 25 μM of Glyco-BABS were added to various concentration of hOGA. […] EDANS standard curve was established using endpoint fluorescence measurements of serial dilutions of EDANS in the relevant buffer using the same instrument parameters. Inner-Filter effect measurements were carried out in cuvette by measuring fluorescence of several concentrations of EDANS in presence of various concentrations of GlcNAc-BABS. Kinetics with Glc-BABS and GBA enzymes (GBA1 and GBA3 purchased from R&D Systems), kinetics with GALC (R&D systems) and Gal-BABS, pH stability, quenching efficiency, some inner-filter effect experiments and lysates experiments were carried out using a Molecular Devices SpectraMax i3× plate reader. […]

Substrate in series [3]: CC(=O)N[C@H]1[C@H](O[C@@H](OCCOCCn2cc(CNC(=O)c3ccc(/N=N/c4ccc(N(C)C)cc4)cc3)nn2)[C@@](C)(O)C(=O)NCCNc2cccc3c(S(=O)(=O)O)cccc23)O[C@H](CO)[C@@H](O)[C@@H]1O
Kind of series: In vitro kinetic assay with hOGA. Particulars: other: PBS, 37° C., recombinant hOGA. On the procedure:
as §1

B1: GBA1 (Homo sapiens) (protein)
chain: ARPCIPKSFGYSSVVCVCNATYCDSFDPPTFPALGTFSRYESTRSGRRMELSMGPIQANHTGTGLLLTLQPEQKFQKVKGFGGAMTDAAALNILALSPPAQNLLLKSYFSEEGIGYNIIRVPMASCDFSIRTYTYADTPDDFQLHNFSLPEEDTKLKIPLIHRALQLAQRPVSLLASPWTSPTWLKTNGAVNGKGSLKGQPGDIYHQTWARYFVKFLDAYAEHKLQFWAVTAENEPSAGLLSGYPFQCLGFTPEHQRDFIARDLGPTLANSTHHNVRLLMLDDQRLLLPHWAKVVLTDPEAAKYVHGIAVHWYLDFLAPAKATLGETHRLFPNTMLFASEACVGSKFWEQSVRLGSWDRGMQYSHSIITNLLYHVVGWTDWNLALNPEGGPNWVRNFVDSPIIVDITKDTFYKQPMFYHLGHFSKFIPEGSQRVGLVASQKNDLDAVALMHPDGSAVVVVLNRSSKDVPLTIKDPAVGFLETISPGYSIHTYLWRRQ
notes: purchased R&D Systems
As to B1, in series [1], the kcat/Km was 0.00013 µM⁻¹ s⁻¹.

B2: human O-GlcNAcase (hOGA) (Homo sapiens) (protein)
chain: MVQKESQATLEERESELSSNPAASAGASLEPPAAPAPGEDNPAGAGGAAVAGAAGGARRFLCGVVEGFYGRPWVMEQRKELFRRLQKWELNTYLYAPKDDYKHRMFWREMYSVEEAEQLMTLISAAREYEIEFIYAISPGLDITFSNPKEVSTLKRKLDQVSQFGCRSFALLFDDIDHNMCAADKEVFSSFAHAQVSITNEIYQYLGEPETFLFCPTEYCGTFCYPNVSQSPYLRTVGEKLLPGIEVLWTGPKVVSKEIPVESIEEVSKIIKRAPVIWDNIHANDYDQKRLFLGPYKGRSTELIPRLKGVLTNPNCEFEANYVAIHTLATWYKSNMNGVRKDVVMTDSEDSTVSIQIKLENEGSDEDIETDVLYSPQMALKLALTEWLQEFGVPHQYSSRQVAHSGAKASVVDGTPLVAAPSLNATTVVTTVYQEPIMSQGAALSGEPTTLTKEEEKKQPDEEPMDMVVEKQEETDHKNDNQILSEIVEAKMAEELKPMDTDKESIAESKSPEMSMQEDCISDIAPMQTDEQTNKEQFVPGPNEKPLYTAEPVTLEDLQLLADLFYLPYEHGPKGAQMLREFQWLRANSSVVSVNCKGKDSEKIEEWRSRAAKFEEMCGLVMGMFTRLSNCANRTILYDMYSYVWDIKSIMSMVKSFVQWLGCRSHSSAQFLIGDQEPWAFRGGLAGEFQRLLPIDGANDLFFQPPPLTPTSKVYTIRPYFPKDEASVYKICREMYDDGVGLPFQSQPDLIGDKLVGGLLSLSLDYCFVLEDEDGICGYALGTVDVTPFIKKCKISWIPFMQEKYTKPNGDKELSEAEKIMLSFHEEQEVLPETFLANFPSLIKMDIHKKVTDPSVAKSMMACLLSSLKANGSRGAFCEVRPDDKRILEFYSKLGCFEIAKMEGFPKDVVILGRSL
notes: started by addition of hOGA (WT, Full-length, expressed in E. coli. as previously described); made in house; host or cells: E. coli
Regarding B2, the values for the kcat/Km in series [2] and in series [3] were 263 M⁻¹ s⁻¹ and 519 M⁻¹ s⁻¹, respectively.
